# According to paper PMC11542179, “Unraveling the Bivalent and Rapid Interactions Between a Multivalent RNA Recognition Motif and RNA: A Kinetic Approach”:
# B1: RNA-HP2a (structured_RNA)
# RNA: AAGCGUUAGUUAUUUAGUCGCUU
# B2: RNA-HP2b (structured_RNA)
# RNA: CACUCUGUAGUAUGUAGGGUUUAUUU
# B3: RNA-L1a (ssRNA)
# RNA: UUGUCAGUUACCCCUU
# B4: RNA C (ssRNA)
# RNA: CGGCGCCGC
# B5: RNA-L1 (ssRNA)
# RNA: UUGUUAGUUACCCCUU
# Experiments:
# MSI1 RRM2 [1] = biological target: T1, MSI1 RRM2 (Homo sapiens, UniProt O43347 104-200); assay: SPR; 1:1 with mass transport; SPR, 3'-biotinylated RNA immobilized on dextran sensor chip, protein as analyte; running buffer, salt, pH and temperature not in the material; details: protein: recombinant, tags: C-terminal Strep-tag, label: 3'-biotin
# MSI1 RRM1 [2] = biological target: T2, MSI1 RRM1 (Homo sapiens, UniProt O43347 1-103); assay: as above; details: protein: recombinant, tags: N-terminal Strep-tag, label: 3'-biotin
# MSI1 RRM1-RRM2 tandem [3] = biological target: T3, MSI1 RRM1-RRM2 tandem (Homo sapiens, UniProt O43347 1-200); assay: SPR; KD1, bivalent analyte model; SPR, 3'-biotinylated RNA immobilized on dextran sensor chip, protein as analyte; running buffer, salt, pH and temperature not in the material; details: protein: recombinant, label: 3'-biotin
# MSI1 RRM1-RRM2 tandem [4] = biological target: T3, MSI1 RRM1-RRM2 tandem; assay: SPR; KD1 monovalent step, new model; SPR, 3'-biotinylated RNA immobilized on dextran sensor chip, protein as analyte; running buffer, salt, pH and temperature not in the material; details: protein: recombinant, label: 3'-biotin
# MSI1 RRM1-RRM2 tandem [5] = biological target: T3, MSI1 RRM1-RRM2 tandem; assay: SPR; 7.8-250 nM; SPR, 3'-biotinylated RNA immobilized on dextran sensor chip, protein as analyte; running buffer, salt, pH and temperature not in the material; details: protein: recombinant; label: 3'-biotin
# MSI1 RRM2 [6] = biological target: T1, MSI1 RRM2; assay: SPR; 1.9-500 nM; SPR, 3'-biotinylated RNA immobilized on dextran sensor chip, protein as analyte; running buffer, salt, pH and temperature not in the material; details: protein: recombinant; tags: C-terminal Strep-tag; label: 3'-biotin
# MSI1 RRM1 [7] = biological target: T2, MSI1 RRM1; assay: as above; details: protein: recombinant; tags: N-terminal Strep-tag; label: 3'-biotin
# MSI1 RRM1-RRM2 tandem [8] = biological target: T3, MSI1 RRM1-RRM2 tandem; assay: SPR; 1:1 model (poor fit); SPR, 3'-biotinylated RNA immobilized on dextran sensor chip, protein as analyte; running buffer, salt, pH and temperature not in the material; details: protein: recombinant; label: 3'-biotin; linear, single UAG motif
# MSI1 RRM1-RRM2 tandem [9] = biological target: T3, MSI1 RRM1-RRM2 tandem; assay: SPR; KD1, induced fit model; SPR, 3'-biotinylated RNA immobilized on dextran sensor chip, protein as analyte; running buffer, salt, pH and temperature not in the material; details: protein: recombinant; label: 3'-biotin; linear, single UAG motif
# MSI1 RRM1-RRM2 tandem [10] = biological target: T3, MSI1 RRM1-RRM2 tandem; assay: SPR; KD1, bivalent analyte model (Table 3 prints 41); SPR, 3'-biotinylated RNA immobilized on dextran sensor chip, protein as analyte; running buffer, salt, pH and temperature not in the material; details: protein: recombinant; label: 3'-biotin; linear, single UAG motif
# MSI1 RRM1-RRM2 tandem [11] = biological target: T3, MSI1 RRM1-RRM2 tandem; assay: SPR; KD1 monovalent step, new rapid 2:1 model; SPR, 3'-biotinylated RNA immobilized on dextran sensor chip, protein as analyte; running buffer, salt, pH and temperature not in the material; details: protein: recombinant; label: 3'-biotin; linear, single UAG motif
# T2 sequence (O43347 1-103): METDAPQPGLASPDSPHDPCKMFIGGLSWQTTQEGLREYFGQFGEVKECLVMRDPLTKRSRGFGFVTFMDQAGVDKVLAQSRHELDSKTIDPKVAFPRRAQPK
# T3 sequence (O43347 1-200): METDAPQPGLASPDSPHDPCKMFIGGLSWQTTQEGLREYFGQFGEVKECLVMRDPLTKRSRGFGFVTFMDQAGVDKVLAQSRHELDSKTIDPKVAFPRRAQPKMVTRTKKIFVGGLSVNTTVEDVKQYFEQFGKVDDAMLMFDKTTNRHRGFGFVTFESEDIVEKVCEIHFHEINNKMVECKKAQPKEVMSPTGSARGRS
# T1 sequence (O43347 104-200): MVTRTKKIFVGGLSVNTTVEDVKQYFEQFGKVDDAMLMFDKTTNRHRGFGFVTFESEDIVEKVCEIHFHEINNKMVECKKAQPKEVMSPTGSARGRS
binder,measurement,setting,value
B1,Kd,MSI1 RRM2 [1]; potential hairpin,37 nM
same,Kd,MSI1 RRM1 [2]; potential hairpin,22 nM
same,Kd,MSI1 RRM1-RRM2 tandem [3]; potential hairpin,45 nM
same,Kd,MSI1 RRM1-RRM2 tandem [4]; potential hairpin,77 nM
B2,Kd,MSI1 RRM2 [1]; potential hairpin,26 nM
same,Kd,MSI1 RRM1 [2]; potential hairpin,33 nM
same,Kd,MSI1 RRM1-RRM2 tandem [3]; potential hairpin,144 nM
same,Kd,MSI1 RRM1-RRM2 tandem [4]; potential hairpin,49 nM
B3,Kd,MSI1 RRM2 [1]; linear,123 nM
same,Kd,MSI1 RRM1 [2]; linear,151 nM
same,Kd,MSI1 RRM1-RRM2 tandem [3]; linear,1410 nM
same,Kd,MSI1 RRM1-RRM2 tandem [4]; linear,1170 nM
B4,binding result,MSI1 RRM1-RRM2 tandem [5],no binding
same,binding result,MSI1 RRM2 [6],no binding
same,binding result,MSI1 RRM1 [7],no binding
B5,Kd,"MSI1 RRM2 [1]; linear, single UAG motif",25 nM
same,Kd,"MSI1 RRM1 [2]; linear, single UAG motif",47 nM
same,Kd,MSI1 RRM1-RRM2 tandem [8],2 nM
same,Kd,MSI1 RRM1-RRM2 tandem [9],24 nM
same,Kd,MSI1 RRM1-RRM2 tandem [10],42 nM
same,Kd,MSI1 RRM1-RRM2 tandem [11],58 nM
